Drawing on publication PMC6249037, this text covers catch bond force maximum, force maximum for catch-bond formation (CD3δ-SxxS cell line) and maximal bond lifetime (catch bond; CD3δ-SxxS cell line) for 1 substance.

The target in assay [1] is N15 TCRαβ heterodimer, TCRα R251L (mouse).
Assay [2] concerns the target N15 TCRαβ heterodimer, WT TCRα (mouse) (UniProt P01849).
Chain of UniProt P01849 (P01849 whole entry, looked up, one chain of several): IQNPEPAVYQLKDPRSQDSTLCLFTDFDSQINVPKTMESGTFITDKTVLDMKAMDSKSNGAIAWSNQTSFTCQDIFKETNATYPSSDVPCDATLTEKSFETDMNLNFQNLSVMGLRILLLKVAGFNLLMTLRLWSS

“VSV8K^b (vesicular stomatitis virus nucleoprotein octapeptide VSV8 bound to [change]^b) (peptide-MHC)” had a catch bond force maximum in assay [1] of 10 pN. Further, in assay [2], the force maximum for catch-bond formation (CD3δ-SxxS cell line) is 15 pN and the maximal bond lifetime (catch bond; CD3δ-SxxS cell line) was found to be 8 s.
